Experimental data: publication PMC8983682 (2022)

Biological target: N1-MI15-WT (recombinant soluble NA head of A/Michigan/45/2015 fused to hVASP) (influenza A virus A/Michigan/45/2015)
Assay: BLI

Binder	Kd [nM]
CD6 IgG (antibody, V domains shown) VH: QVKLQESGGGLVQPKGSLKLSCAASGFTFNTYAMNWVRQAPGKGLEWVARIRSKSNNYATFYADSVKDRFTISRDDSQSMLYLQMHNLKTDDTAMYYCVRPSIYYYASGYLDVWGAGTTVTVSS VL: QIVLSQSPAILSASPGEKVTMTCRTSSSVSYMHWYQQKPGSSPKPWIYATSNLASGVPFRFSGSGSGTSYSLTISRVEAEDAATYYCQQWNSNPPTFGGGTKLEIK	1.3
1G01 IgG (antibody, V domains shown) VH: EVQLVESGGRALRPGGSLRLSCAASGFKFDDYAMSWVRQVPGKGLEFVSGLNWNGDITAYTDSVKGRFTVSRDNAKNSLYLHINSPKPEDTALYYCARTSSWGDYTRGPEPKITWYFDLWGRGTLVTVSS VL: DIQLTQSPSFLSASVGDRITITCRASQGIDGYLAWYQQRPGKAPNLLIYAASLLQSGVPSRFSGSGYGTEFTLTISSLQPEDFATYYCQHLDSYPLFTFGPGTKVDIK	< 0.001
